Assay results from article doi:10.1101/2020.06.22.166033.

Target: biotinylated SARS-CoV-2 S2P probe (SARS-CoV-2-S2P-AVI) (SARS-CoV-2 | T4 phage) (UniProt P0DTC2)
Assay: SPR

CR3022 Fab
Kd: 0.0914 µM
